Experimental data: PMC5947572, “The C‐terminal cytosolic domain of the human zinc transporter ZnT8 and its diabetes risk variant” (The Febs Journal, 2018)
Positions count from the first letter of the chain named.

B1: R325 variant of ZnT8 CTD (aa267-369) (domain or fragment, human, UniProt Q8IWU4 267-369, looked up)
chain: LKDFSILLMEGVPKSLNYSGVKELILAVDGVLSVHSLHIWSLTMNQVILSAHVATAASRDSQVVRREIAKALSKSFTMHSLTIQMESPVDQDPDCLFCEDPCD
modifications: amine-reactive Red-NHS dye (Monolith NT.115 labelling kit) on the labelled copy in MST; the titrated copy unlabelled
notes: human zinc transporter ZnT8 (SLC30A8), C-terminal cytosolic domain, residues 267-369, Arg at position 325; numbers count on the full-length human ZnT8 long isoform (Ensembl transcript SLC30A8-002); A TEV protease cleavage site stands between the N-terminal hexahistidine tag and the domain (vector pET6H); Calculated monomer mass with tag and TEV site 13.3 kDa; also called ZnT8cR; apo-ZnT8cR; …
B2: W325 variant of ZnT8 CTD (aa267-369) (domain or fragment, human, UniProt Q8IWU4 267-369, looked up)
chain: B1 chain with R59W
modifications: amine-reactive Red-NHS dye (Monolith NT.115 labelling kit) on the labelled copy in MST; the titrated copy unlabelled
notes: numbers count on the full-length human ZnT8 long isoform (Ensembl transcript SLC30A8-002); A TEV protease cleavage site stands between the N-terminal hexahistidine tag and the domain (vector pET6H); also called ZnT8cW; apo-ZnT8cW; source: apo form made with TCEP and EDTA; not shown: His6, N-terminal, kept

Legend:
[1] = biological target: the molecule itself; assay: MST; homodimerisation (dimer to monomers); 100 nM Red-NHS-labelled apo-protein titrated with unlabelled apo-protein of the same variant (180 uM-5.5 nM ZnT8cR or 124 uM-3.8 nM ZnT8cW); 10 mM potassium phosphate pH 8, 60 mM NaCl, 20 mM sucrose, 100 uM TCEP, 1 mM EDTA, 0.05% Tween-20; 25 °C; Monolith NT.115
[2] = biological target: the molecule itself; assay: native gel or EMSA; native PAGE of the purified proteins; conditions not given

| Protein | Kd [1] [µM] | stoichiometry N [2] |
| --- | --- | --- |
| B1 | 4.3 | 2 |
| B2 | 1.8 | 2 |
